Article PMC9606039, “Molecular analysis of a public cross-neutralizing antibody response to SARS-CoV-2” (Cell Reports, 2022)

Target: receptor-binding domain (RBD) (residues 319-541) of the SARS-CoV-2 spike (S) protein (SARS-CoV-2, ancestral Wuhan-Hu-1 …, UniProt P0DTC2)

B1: XG005 (antibody, V domains shown)
VH: QVTLRESGPTLVKPKQTLTLTCTFSGFSLSTPGGGVGWIRQPPGKALEWLALIYWDDDKRYSPSLKSSLTITKDTSKNQVVLTMTNMDPVDTATYYCARLTAADTIFDCWGQGTLVTVSS
VL: QSALTQPASVSGSPGLSITISCTATSSDVGAYNYVSWYQQHPGQAPKLMIYDVSKRPSGVSNRFSGSKSANTASLTISGLQAEDEADYYCSSYTTTSVVFGGGTKLTVL
- binding result: binds

B2: XGv265 (antibody, V domains shown)
VH: QITLKESGPTLVKPTQTLTLTCNFSGFSLNTYGVGVGWIRQPPGKALEWLALIYWDGDERYGPFFKNKVTIAKDTSKNQVVLTMTNMDPVDTATYYCARHLIPTIFDYWGQGTLVTVSS
VL: QSALTQPASVSGSPGQSITISCTGTSSDVGGSNYVSWYQHHPDRAPKLLIYEVTNRPSGVSNRFSGSKSANTASLTISGLQAEDEADYYCSSYTTTSTHILFGGGTKLTV
- binding result: binds
